Assay [1] deals with T1, PLM 20-mer RCKFNQQQRTGEPDEEEGTF (R41–F60), on membrane (mouse, covalently linked to the membrane).
T1 peptide: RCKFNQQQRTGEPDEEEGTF
Put plainly: peptide or protein array.

Assay [2] concerns the target T2, native NCX1(301–320) peptide synthesized on membrane (rat, covalently linked to the membrane).
T2 peptide: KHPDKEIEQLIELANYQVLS
Description: peptide or protein array.

Square brackets hold non-standard residues; d marks the D form. Ends that are not written are not given here. * marks the point of attachment. Biotin = O=C1N[C@H]2[C@H](CS[C@H]2CCCCC(=O)*)N1; pS = N[C@@H](COP(=O)(O)O)C(=O)O

B1: biotin–NCX1(292–311) (peptide)
peptide: Biotin-ARILKELKQKHPDKEIEQLI
In the case of B1, in assay [1], the binding result was “binds”.

B2: biotin–NCX1(235–254) (peptide)
peptide: Biotin-KQRGMIIEHEGDRPASKTEI
As to B2, in assay [1], the binding result is recorded as “binds”.

B3: biotin–pSer68-PLMcyt (peptide)
peptide: Biotin-KRCRCKFNQQQRTGEPDEEEGTFRSSIRRL[pS]SRRR
modifications: cysteine pairing not given here
Turning to B3, in assay [2], the binding result is on record as “binds”.

B4: biotin–NCX1(301–320) (peptide)
peptide: Biotin-KHPDKEIEQLIELANYQVLS
Regarding B4, the binding result in assay [1] is “binds”.

These data come from paper PMC4964977 (Biochemical Journal, 2016).
